According to article PMC3154886 (Molecular Biology of the Cell, 2011):

Biological target: Human EB3 (end-binding protein 3) (human, UniProt Q9UPY8 1-281)
Assay: cross-linking

Sequence of Human EB3 (end-binding protein 3) (Q9UPY8 whole entry): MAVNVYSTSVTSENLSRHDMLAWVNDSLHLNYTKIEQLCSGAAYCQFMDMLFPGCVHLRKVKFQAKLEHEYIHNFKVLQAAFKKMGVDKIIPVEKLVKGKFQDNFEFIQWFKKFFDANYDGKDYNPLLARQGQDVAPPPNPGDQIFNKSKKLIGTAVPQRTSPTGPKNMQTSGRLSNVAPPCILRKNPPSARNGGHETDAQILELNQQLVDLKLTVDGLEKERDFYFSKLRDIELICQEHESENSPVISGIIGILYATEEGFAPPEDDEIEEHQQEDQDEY

binding result: binds
B1: Human EB1 (end-binding protein 1) (natural protein)
chain: MAVNVYSTSVTSDNLSRHDMLAWINESLQLNLTKIEQLCSGAAYCQFMDMLFPGSIALKKVKFQAKLEHEYIQNFKILQAGFKRMGVDKIIPVDKLVKGKFQDNFEFVQWFKKFFDANYDGKDYDPVAARQGQETAVAPSLVAPALNKPKKPLTSSSAAPQRPISTQRTAAAPKAGPGVVRKNPGVGNGDDEAAELMQQVNVLKLTVEDLEKERDFYFGKLRNIELICQENEGENDPVLQRIVDILYATDEGFVIPDEGGPQEEQEEY
